Results: publication PMC11302929
“And” between values parts separate entries of the source, which are not always exact repeats. Equal values may be shown once.

Experiments:
[1] = target: recombinant soluble NDV HN ectodomain including the stalk domain, without oligomerization domain (HN-M) (Newcastle disease virus); test: SEC; Superdex 200 Increase 10/300 GL column, freshly purified NDV HN proteins
[2] = target: recombinant soluble NDV HN ectodomain with tetrabrachion tetramerization domain (HN-TE) (not stated | Newcastle disease virus); test: as above

| Substance | stoichiometry N [1] | stoichiometry N [2] |
| --- | --- | --- |
| recombinant soluble NDV HN ectodomain including the stalk domain, without oligomerization domain (HN-M) (domain or fragment) | 2 and 4 | – |
| recombinant soluble NDV HN ectodomain with tetrabrachion tetramerization domain (HN-TE) | – | 4 |
